In PMC10894483, “In silico design of multipoint mutants for enhanced performance of Thermomyces lanuginosus lipase for efficient biodiesel production” (Biotechnology for Biofuels and Bioproducts, 2024):

Substrate: CCCCCCCCCCCCCCCC(=O)Oc1ccc([N+](=O)[O-])cc1
Experiment: colorimetric p-nitrophenol release, Michaelis-Menten fit
Assay type: biochemical, Thermomyces lanuginosus
Details: 45 °C, Tris-HCl pH 8.5, 10-100 mM pNPP, fermentation supernatant

B1: Thermomyces lanuginosus lipase (TLL; wt–TLL) (Thermomyces lanuginosus) (protein)
chain: EVSQDLFNQFNLFAQYSAAAYCGKNNDAPAGTNITCTGNACPEVEKADATFLYSFEDSGVGDVTGFLALDNTNKLIVLSFRGSRSIENWIGNLNFDLKEINDICSGCRGHDGFTSSWRSVADTLRQKVEDAVREHPDYRVVFTGHSLGGALATVAGADLRGNGYDIDVFSYGAPRVGNRAFAEFLTVQTGGTLYRITHTNDIVPRLPPREFGYSHSSPEYWIKSGTLVPVTRNDIVKIEGIDATGGNNQPNIPDIPAHLWYFGLIGTCL
notes: N-terminal 6xHis-tag, yeast secretion signal, secreted from Pichia pastoris GS115; fermentation supernatant used without purification (single band); 35 kDa
Km: 3.61 ± 0.10 mM
